Measurements: paper PMC2795851
Where “and” joins values, the source holds several entries; their conditions need not be identical. Equal values may be shown once.

The substances below were run against sfpCHIR-AB1, soluble fusion protein of the extracellular region of CHIR-AB1 and human IgG-Fc (chicken) (assay: SPR; 90RU of purified sfpCHIR-AB1 immobilised on a CM5 sensor surface; purified IgY-Fc (Fcυ2–4) mutants 25–400 nM flowed over; Biacore 3000; 1:1 binding model).

Row | Substance | Ka | koff | kon
1 | chicken IgY-Fc (Fcυ2–4) S346D/C347P/S348R/P349G (domain or fragment) | 9.5e+07 M⁻¹ | 0.0044 s⁻¹ | 420000 M⁻¹ s⁻¹
2 | chicken IgY-Fc fragment containing heavy chain constant domains 2, 3 and 4 (Fcυ2–4), wild type (domain or fragment) | 2.1e+08 M⁻¹ and 1.4e+08 M⁻¹ | 0.0012 s⁻¹ and 0.0021 s⁻¹ | 300000 M⁻¹ s⁻¹ and 260000 M⁻¹ s⁻¹
3 | chicken IgY-Fc (Fcυ2–4) R556E (domain or fragment) | 9.3e+06 M⁻¹ | 0.0011 s⁻¹ | 11000 M⁻¹ s⁻¹
4 | chicken IgY-Fc (Fcυ2–4) R496E (domain or fragment) | 1.8e+08 M⁻¹ | 0.0013 s⁻¹ | 220000 M⁻¹ s⁻¹
5 | chicken IgY-Fc (Fcυ2–4) E437H/L440R (domain or fragment) | 1.8e+08 M⁻¹ | 0.0021 s⁻¹ | 380000 M⁻¹ s⁻¹

Second part, the substance after the results:

Row | Ka | koff | kon | Substance
6 | 7.3e+07 M⁻¹ | 0.013 s⁻¹ | 920000 M⁻¹ s⁻¹ | chicken IgY-Fc (Fcυ2–4) F557R (domain or fragment)
7 | 1.1e+08 M⁻¹ | 0.0015 s⁻¹ | 170000 M⁻¹ s⁻¹ | chicken IgY-Fc (Fcυ2–4) H495E (domain or fragment)
8 | 2e+08 M⁻¹ | 0.0021 s⁻¹ | 410000 M⁻¹ s⁻¹ | chicken IgY-Fc (Fcυ2–4) N376D (domain or fragment)
9 | 4.5e+08 M⁻¹ | 0.00051 s⁻¹ | 230000 M⁻¹ s⁻¹ | chicken IgY-Fc (Fcυ2–4) R490E (domain or fragment)
